Data: patent US20180155451A1 (published 2018)

Biological target: T1, FcγRIIa R (human FcγRIIa, allotype R, Arg at position 131), extracellular domain with C-terminal His tag (human, UniProt P12318 34-217)
T1 construct: extracellular domain; expressed in FreeStyle293 cells; analyte in Biacore; also called 2aR; FcgRIIa R
T1 sequence (looked up): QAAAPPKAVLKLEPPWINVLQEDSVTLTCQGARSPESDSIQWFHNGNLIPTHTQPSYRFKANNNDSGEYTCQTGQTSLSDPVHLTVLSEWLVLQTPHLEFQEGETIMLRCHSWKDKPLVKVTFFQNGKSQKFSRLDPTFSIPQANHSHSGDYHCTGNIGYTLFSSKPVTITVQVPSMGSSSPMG
Experiment: SPR (Biacore), relative binding vs GpH7-A5/GpH7-B3/GpL16-k0
Protocol: Analysis of interaction between objective antibody and the FcγR was carried out using Biacore T100 (GE Healthcare). HBS-EP+ (GE Healthcare) was used as the running buffer, and the measurement temperature was set to 25° C. Chips produced by immobilizing the antigen peptide by the amine coupling method to a Series S Sencor Chip CM5 (GE Healthcare), or alternatively, chips produced by allowing preliminarily biotinylated antigen peptides to interact with and immobilize onto a Series S Sensor Chip SA (certified) (GE Healthcare) were used. Antibodies of interest were captured onto an antigen peptide-immobilized chip, and allowed to interact to each FcγR diluted with running buffer. To regenerate and repeatedly use the chip, the antibodies captured on the chip were washed off by reacting 10 mM glycine-HCl, pH 1.5.
The FcγR-binding activity of each antibody was assessed primarily using as an indicator the FcγR-binding activity and dissociation constant for FcγR.

B1: GpH7-A5/GpH7-B3 variant P331_13S/GpL16-k0 (antibody, human IgG1, kappa)
heavy 1: not shown
heavy 2: not shown
light: DIVMTQSPLSLPVTPGEPASISCQASESLVHSNRNTYLHWYLQKPGQSPQLLIYKVSNRFSGVPDRFSGSGSGTDFTLKISRVEAEDVGVYYCSQNTHVPPTFGQGTKVEIERTVAAPSVFIFPPSDEQLKSGTASVVCLLNNFYPREAKVQWKVDNALQSGNSQESVTEQDSKDSTYSLSSTLTLSKADYEKHKVYACEVTHQGLSSPVTKSFNRGEC
notes: heterodimerized antibody, mutation in one H chain only; also called He Ab
In the case of B1, the He/Con_2aR is reported as 105 relative, control = 100.

B2: GpH7-A5/GpH7-B3 variant S337_12R/GpL16-k0 (antibody, human IgG1, kappa)
heavy 1: not shown
heavy 2: not shown
light: B1 light
notes: as for B1
For B2, the He/Con_2aR was 107 relative, control = 100.

B3: GpH7-A5/GpH7-B3 variant S337_08L/GpL16-k0 (antibody, human IgG1, kappa)
heavy 1: not shown
heavy 2: not shown
light: B1 light
notes: as for B1
In the case of B3, the He/Con_2aR is reported as 107 relative, control = 100.

B4: GpH7-A5/GpH7-B3 variant S239_06M/GpL16-k0 (antibody, human IgG1, kappa)
heavy 1: not shown
heavy 2: not shown
light: B1 light
notes: as for B1
With B4 the He/Con_2aR was 101 relative, control = 100.

B5: GpH7-A5/GpH7-B3 variant T335_07I/GpL16-k0 (antibody, human IgG1, kappa)
heavy 1: not shown
heavy 2: not shown
light: B1 light
notes: as for B1
B5 was tested, and the He/Con_2aR was 109 relative, control = 100.

B6: GpH7-A5/GpH7-B3 variant S337_09D/GpL16-k0 (antibody, human IgG1, kappa)
heavy 1: not shown
heavy 2: not shown
light: B1 light
notes: as for B1
For B6, the He/Con_2aR was 115 relative, control = 100.

B7: GpH7-A5/GpH7-B3 variant Y296_10E/GpL16-k0 (antibody, human IgG1, kappa)
heavy 1: not shown
heavy 2: not shown
light: B1 light
notes: as for B1
B7 was tested, and the He/Con_2aR was 103 relative, control = 100.

B8: GpH7-A5/GpH7-B3 variant S239_05P/GpL16-k0 (antibody, human IgG1, kappa)
heavy 1: not shown
heavy 2: not shown
light: B1 light
notes: as for B1
In the case of B8, the He/Con_2aR is reported as 106 relative, control = 100.

B9: GpH7-A5/GpH7-B3 variant P331_14T/GpL16-k0 (antibody, human IgG1, kappa)
heavy 1: not shown
heavy 2: not shown
light: B1 light
notes: as for B1
In the case of B9, the He/Con_2aR is reported as 104 relative, control = 100.

B10: GpH7-A5/GpH7-B3 variant S337_06M/GpL16-k0 (antibody, human IgG1, kappa)
heavy 1: not shown
heavy 2: not shown
light: B1 light
notes: as for B1
B10 was tested, and the He/Con_2aR was 105 relative, control = 100.

B11: GpH7-A5/GpH7-B3 variant V266_06M/GpL16-k0 (antibody, human IgG1, kappa)
heavy 1: not shown
heavy 2: not shown
light: B1 light
notes: as for B1
In the case of B11, the He/Con_2aR is reported as 150 relative, control = 100.

B12: GpH7-A5/GpH7-B3 variant Y296_06M/GpL16-k0 (antibody, human IgG1, kappa)
heavy 1: not shown
heavy 2: not shown
light: B1 light
notes: as for B1
B12 was tested, and the He/Con_2aR was 101 relative, control = 100.

B13: GpH7-A5/GpH7-B3 variant T335_02A/GpL16-k0 (antibody, human IgG1, kappa)
heavy 1: not shown
heavy 2: not shown
light: B1 light
notes: as for B1
B13 was tested, and the He/Con_2aR was 102 relative, control = 100.

B14: GpH7-A5/GpH7-B3 variant S337_16H/GpL16-k0 (antibody, human IgG1, kappa)
heavy 1: not shown
heavy 2: not shown
light: B1 light
notes: as for B1
In the case of B14, the He/Con_2aR is reported as 109 relative, control = 100.

B15: GpH7-A5/GpH7-B3 variant S337_15Y/GpL16-k0 (antibody, human IgG1, kappa)
heavy 1: not shown
heavy 2: not shown
light: B1 light
notes: as for B1
For B15, the He/Con_2aR was 105 relative, control = 100.

B16: GpH7-A5/GpH7-B3 variant Y296_16H/GpL16-k0 (antibody, human IgG1, kappa)
heavy 1: not shown
heavy 2: not shown
light: B1 light
notes: as for B1
For B16, the He/Con_2aR was 105 relative, control = 100.

B17: GpH7-A5/GpH7-B3 variant Y296_04F/GpL16-k0 (antibody, human IgG1, kappa)
heavy 1: not shown
heavy 2: not shown
light: B1 light
notes: as for B1
For B17, the He/Con_2aR was 109 relative, control = 100.

B18: GpH7-A5/GpH7-B3 variant T335_18N/GpL16-k0 (antibody, human IgG1, kappa)
heavy 1: not shown
heavy 2: not shown
light: B1 light
notes: as for B1
With B18 the He/Con_2aR was 106 relative, control = 100.

B19: GpH7-A5/GpH7-B3 variant Y296_07I/GpL16-k0 (antibody, human IgG1, kappa)
heavy 1: not shown
heavy 2: not shown
light: B1 light
notes: as for B1
In the case of B19, the He/Con_2aR is reported as 101 relative, control = 100.

B20: GpH7-A5/GpH7-B3 variant T335_05P/GpL16-k0 (antibody, human IgG1, kappa)
heavy 1: not shown
heavy 2: not shown
light: B1 light
notes: as for B1
With B20 the He/Con_2aR was 104 relative, control = 100.

B21: GpH7-A5/GpH7-B3 variant T335_12R/GpL16-k0 (antibody, human IgG1, kappa)
heavy 1: not shown
heavy 2: not shown
light: B1 light
notes: as for B1
With B21 the He/Con_2aR was 100 relative, control = 100.

B22: GpH7-A5/GpH7-B3 variant S239_14T/GpL16-k0 (antibody, human IgG1, kappa)
heavy 1: not shown
heavy 2: not shown
light: B1 light
notes: as for B1
With B22 the He/Con_2aR was 103 relative, control = 100.

B23: GpH7-A5/GpH7-B3 variant Q295_10E/GpL16-k0 (antibody, human IgG1, kappa)
heavy 1: not shown
heavy 2: not shown
light: B1 light
notes: as for B1
B23 was tested, and the He/Con_2aR was 102 relative, control = 100.

B24: GpH7-A5/GpH7-B3 variant S337_07I/GpL16-k0 (antibody, human IgG1, kappa)
heavy 1: not shown
heavy 2: not shown
light: B1 light
notes: as for B1
With B24 the He/Con_2aR was 109 relative, control = 100.

B25: GpH7-A5/GpH7-B3 variant Y296_13S/GpL16-k0 (antibody, human IgG1, kappa)
heavy 1: not shown
heavy 2: not shown
light: B1 light
notes: as for B1
For B25, the He/Con_2aR was 102 relative, control = 100.

B26: GpH7-A5/GpH7-B3 variant S337_11K/GpL16-k0 (antibody, human IgG1, kappa)
heavy 1: not shown
heavy 2: not shown
light: B1 light
notes: as for B1
With B26 the He/Con_2aR was 103 relative, control = 100.

B27: GpH7-A5/GpH7-B3 variant T335_01G/GpL16-k0 (antibody, human IgG1, kappa)
heavy 1: not shown
heavy 2: not shown
light: B1 light
notes: as for B1
With B27 the He/Con_2aR was 104 relative, control = 100.

B28: GpH7-A5/GpH7-B3 variant S239_07I/GpL16-k0 (antibody, human IgG1, kappa)
heavy 1: not shown
heavy 2: not shown
light: B1 light
notes: as for B1
In the case of B28, the He/Con_2aR is reported as 102 relative, control = 100.

B29: GpH7-A5/GpH7-B3 variant T335_10E/GpL16-k0 (antibody, human IgG1, kappa)
heavy 1: not shown
heavy 2: not shown
light: B1 light
notes: as for B1
With B29 the He/Con_2aR was 111 relative, control = 100.

B30: GpH7-A5/GpH7-B3 variant T335_19Q/GpL16-k0 (antibody, human IgG1, kappa)
heavy 1: not shown
heavy 2: not shown
light: B1 light
notes: as for B1
B30 was tested, and the He/Con_2aR was 106 relative, control = 100.

B31: GpH7-A5/GpH7-B3 variant T335_15Y/GpL16-k0 (antibody, human IgG1, kappa)
heavy 1: not shown
heavy 2: not shown
light: B1 light
notes: as for B1
In the case of B31, the He/Con_2aR is reported as 111 relative, control = 100.

B32: GpH7-A5/GpH7-B3 variant Q295_06M/GpL16-k0 (antibody, human IgG1, kappa)
heavy 1: not shown
heavy 2: not shown
light: B1 light
notes: as for B1
For B32, the He/Con_2aR was 102 relative, control = 100.

B33: GpH7-A5/GpH7-B3 variant S337_20W/GpL16-k0 (antibody, human IgG1, kappa)
heavy 1: not shown
heavy 2: not shown
light: B1 light
notes: as for B1
In the case of B33, the He/Con_2aR is reported as 110 relative, control = 100.

B34: GpH7-A5/GpH7-B3 variant Y296_09D/GpL16-k0 (antibody, human IgG1, kappa)
heavy 1: not shown
heavy 2: not shown
light: B1 light
notes: as for B1
B34 was tested, and the He/Con_2aR was 106 relative, control = 100.

B35: GpH7-A5/GpH7-B3 variant Y296_14T/GpL16-k0 (antibody, human IgG1, kappa)
heavy 1: not shown
heavy 2: not shown
light: B1 light
notes: as for B1
For B35, the He/Con_2aR was 103 relative, control = 100.

B36: GpH7-A5/GpH7-B3 variant S337_19Q/GpL16-k0 (antibody, human IgG1, kappa)
heavy 1: not shown
heavy 2: not shown
light: B1 light
notes: as for B1
For B36, the He/Con_2aR was 106 relative, control = 100.

B37: GpH7-A5/GpH7-B3 variant S337_10E/GpL16-k0 (antibody, human IgG1, kappa)
heavy 1: not shown
heavy 2: not shown
light: B1 light
notes: as for B1
In the case of B37, the He/Con_2aR is reported as 112 relative, control = 100.

B38: GpH7-A5/GpH7-B3 variant S337_18N/GpL16-k0 (antibody, human IgG1, kappa)
heavy 1: not shown
heavy 2: not shown
light: B1 light
notes: as for B1
In the case of B38, the He/Con_2aR is reported as 107 relative, control = 100.

B39: GpH7-A5/GpH7-B3 variant S337_03V/GpL16-k0 (antibody, human IgG1, kappa)
heavy 1: not shown
heavy 2: not shown
light: B1 light
notes: as for B1
In the case of B39, the He/Con_2aR is reported as 106 relative, control = 100.

B40: GpH7-A5/GpH7-B3 variant T335_13S/GpL16-k0 (antibody, human IgG1, kappa)
heavy 1: not shown
heavy 2: not shown
light: B1 light
notes: as for B1
For B40, the He/Con_2aR was 110 relative, control = 100.

B41: GpH7-A5/GpH7-B3 variant S337_04F/GpL16-k0 (antibody, human IgG1, kappa)
heavy 1: not shown
heavy 2: not shown
light: B1 light
notes: as for B1
For B41, the He/Con_2aR was 105 relative, control = 100.

B42: GpH7-A5/GpH7-B3 variant T335_20W/GpL16-k0 (antibody, human IgG1, kappa)
heavy 1: not shown
heavy 2: not shown
light: B1 light
notes: as for B1
With B42 the He/Con_2aR was 109 relative, control = 100.

B43: GpH7-A5/GpH7-B3 variant T335_16H/GpL16-k0 (antibody, human IgG1, kappa)
heavy 1: not shown
heavy 2: not shown
light: B1 light
notes: as for B1
In the case of B43, the He/Con_2aR is reported as 108 relative, control = 100.

B44: GpH7-A5/GpH7-B3 variant P331_18N/GpL16-k0 (antibody, human IgG1, kappa)
heavy 1: not shown
heavy 2: not shown
light: B1 light
notes: as for B1
In the case of B44, the He/Con_2aR is reported as 105 relative, control = 100.
